Experimental findings from patent US20220249633A1 are described below.

The assay addresses HLA-A*24 (human). In words: UV-exchange ELISA, exchange yield grade.
The molecule EYLQNLNHI [… (SEQ ID NO: 311)] registered a peptide exchange yield of more than 75%.
As to KYTDWTEFL [… (SEQ ID NO: 266)], the peptide exchange yield is 50 to 75%.
On to KFDDVTMLF [… (SEQ ID NO: 301)], for which the peptide exchange yield is more than 75%.
Molecule SFTKTSPNF [… (SEQ ID NO: 247)] came in with a peptide exchange yield of 50 to 75%.
In the case of YFIKSPPSQLF [… (SEQ ID NO: 259)], the peptide exchange yield was in the range of 20 to 49%.
On to RFPVQGTVTF [… (SEQ ID NO: 294)], for which the peptide exchange yield lay within 50 to 75%.
KYTHFIQSF [… (SEQ ID NO: 313)] showed a peptide exchange yield of more than 75%.
For the molecule AYKSEVVYF [… (SEQ ID NO: 298)], the peptide exchange yield was more than 75%.
Molecule LYLPVHYGF [… (SEQ ID NO: 302)] showed a peptide exchange yield of 50 to 75%.
Take KYLESSATF [… (SEQ ID NO: 254)]: the peptide exchange yield was 50 to 75%.
Molecule VYVGDALLHAI [… (SEQ ID NO: 285)] registered a peptide exchange yield of 50 to 75%.
Consider TYNPNLQDKL [… (SEQ ID NO: 280)], for which the peptide exchange yield is more than 75%.
As for KYGDFKLLEF [… (SEQ ID NO: 290)], the peptide exchange yield was more than 75%.
Take VFGKSAYLF [… (SEQ ID NO: 256)]: the peptide exchange yield lay within 50 to 75%.
In the case of KYYRQTLLF [… (SEQ ID NO: 309)], the peptide exchange yield is 20 to 49%.
Then VYPHFSTTNLI [… (SEQ ID NO: 293)], with more than 75%; and KYLSVQLTL [… (SEQ ID NO: 246)], with 20 to 49%; and QYLDVLHAL [… (SEQ ID NO: 276)], with more than 75%.
On to NYLVDPVTI [… (SEQ ID NO: 282)], for which the peptide exchange yield is 50 to 75%.
In the case of TYIDTRTVF [… (SEQ ID NO: 297)], the peptide exchange yield was more than 75%.
Regarding AFGQETNVPLNNF [… (SEQ ID NO: 252)], the peptide exchange yield is more than 75%.
With QYPYLQAFF [… (SEQ ID NO: 269)], the peptide exchange yield lay in the range of 50 to 75%.
In turn, TFDGHGVFF [… (SEQ ID NO: 308)] had a peptide exchange yield of 50 to 75%.
For LYPQLFVVL [… (SEQ ID NO: 245)], the peptide exchange yield is 50 to 75%.
With VYPDTVALTF [… (SEQ ID NO: 288)], the peptide exchange yield lay within 20 to 49%.
Then FYTFPFQQL [… (SEQ ID NO: 277)], with 50 to 75%; and SYLVIHERI [… (SEQ ID NO: 295)], with 50 to 75%.
As to FFHEGQYVF [… (SEQ ID NO: 289)], the peptide exchange yield was more than 75%.
RYHPTTCTI [… (SEQ ID NO: 249)]: the peptide exchange yield is more than 75%.
The molecule IFITKALQI [… (SEQ ID NO: 268)] showed a peptide exchange yield of 20 to 49%.
Regarding IYGEKLQFIF [… (SEQ ID NO: 273)], the peptide exchange yield lay within 50 to 75%.
In the case of LYTETRLQF [… (SEQ ID NO: 264)] it was more than 75%; in that of LYSVIKEDF [… (SEQ ID NO: 303)], 50 to 75%; in that of IYGFFNENF [… (SEQ ID NO: 253)], 50 to 75%.
In the case of YYSQESKVLYL [… (SEQ ID NO: 270)] it was 50 to 75%; in that of KYPDIASPTF [… (SEQ ID NO: 250)], 20 to 49%; in that of SYLNEAFSF [… (SEQ ID NO: 265)], more than 75%.
Then IYNPNLLTASKF [… (SEQ ID NO: 287)], with 50 to 75%.
Molecule KYGTLDVTF [… (SEQ ID NO: 275)] returned a peptide exchange yield of more than 75%.
Molecule SYQVIFQHF [… (SEQ ID NO: 296)] registered a peptide exchange yield of more than 75%.
Consider GYAFTLPLF [… (SEQ ID NO: 307)], for which the peptide exchange yield fell in the range of 50 to 75%.
IYAPTLLVF [… (SEQ ID NO: 310)] had a peptide exchange yield of 50 to 75%.
Regarding YYLGSGRETF [… (SEQ ID NO: 291)], the peptide exchange yield fell in the range of 50 to 75%.
In turn, SFLNIEKTEILF [… (SEQ ID NO: 267)] showed a peptide exchange yield of 20 to 49%.
Then GYIKLINFI [… (SEQ ID NO: 261)], with more than 75%; and VWLPASVLF [… (SEQ ID NO: 279)], with 50 to 75%.
Molecule AYAQLGYLL [… (SEQ ID NO: 258)] came in with a peptide exchange yield of 50 to 75%.
Molecule TYPSQLPSL [… (SEQ ID NO: 300)] registered a peptide exchange yield of 50 to 75%.
VYMNVMTRL [… (SEQ ID NO: 260)] registered a peptide exchange yield of more than 75%.
DYLKDPVTI [… (SEQ ID NO: 284)] returned a peptide exchange yield of 50 to 75%.
In the case of EYQEIFQQL [… (SEQ ID NO: 283)] it was 50 to 75%; in that of AFPTFSVQL [… (SEQ ID NO: 248)], more than 75%; in that of KQLDIANYELF [… (SEQ ID NO: 274)], more than 75%.
In the case of RYFKGDYSI [… (SEQ ID NO: 314)] it was 50 to 75%.
RYILENHDF [… (SEQ ID NO: 263)] yielded a peptide exchange yield of 50 to 75%.
Molecule RFLMKSYSF [… (SEQ ID NO: 271)] returned a peptide exchange yield of more than 75%.
The molecule RYVFPLPYL [… (SEQ ID NO: 272)] came in with a peptide exchange yield of more than 75%.
SYTSVLSRL [… (SEQ ID NO: 312)] displayed a peptide exchange yield of 50 to 75%.
Then VYSSQFETI [… (SEQ ID NO: 262)], with more than 75%; and SYGTILSHI [… (SEQ ID NO: 286)], with more than 75%.
Then VYTKALSSL [… (SEQ ID NO: 251)], with 50 to 75%; and FYPQIINTF [… (SEQ ID NO: 292)], with more than 75%.
Consider KYQYVLNEF [… (SEQ ID NO: 299)], for which the peptide exchange yield fell in the range of 50 to 75%.
On to VYQKIILKF [… (SEQ ID NO: 255)], for which the peptide exchange yield lay within 50 to 75%.
Then NYSPGLVSLIL [… (SEQ ID NO: 281)], with 50 to 75%.
In turn, VYPAEQPQI [… (SEQ ID NO: 306)] registered a peptide exchange yield of 50 to 75%.
EYNEVANLF [… (SEQ ID NO: 304)]: the peptide exchange yield was in the range of 50 to 75%.
For IFIDNSTQPLHF [… (SEQ ID NO: 257)], the peptide exchange yield was in the range of 50 to 75%.
NYENKQYLF [… (SEQ ID NO: 305)] had a peptide exchange yield of more than 75%.
